In publication PMC12299175 (Vaccines, 2025):

Key:
[1] = target: Myc-tagged S fragment of human coronavirus (HCoV)-OC43 (HCoV-OC43 (GenBank L14643.1), UniProt P36334); assay: Western blot; conditions: one partner purified
[2] = target: T1, Myc-tagged S fragment of MERS-CoV (MERS-CoV, isolate of GenBank KT357812.1, UniProt A0A024E0Q9); assay: Western blot; conditions: one partner purified
T1 construct: source: 293FT cells, transiently transfected, in lysate (RIPA buffer)

[3] = target: Myc-tagged S fragment of bat coronavirus (BtCoV)-HKU5 (BtCoV-HKU5 (GenBank AGP04943.1), UniProt S4X425); assay: Western blot; conditions: one partner purified
[4] = target: Myc-tagged S fragment of mouse hepatitis virus (MHV) (Mouse hepatitis virus, ATCC VR-764 …, UniProt P11224); assay: Western blot; conditions: one partner purified
[5] = target: T2, synthetic peptide of stem helix (1141-1161) of SARS-CoV-2 WT S with biotin at C terminus (SARS-CoV-2, UniProt P0DTC2); assay: BLI; […] (Gator Bio); antibody at 1 to 100 nM in 100 mM HEPES, 500 mM NaCl, 0.005% Tween20, 0.1% BSA; […]; conditions: both partners purified
T2 construct: source: synthetic peptide

Chain of Myc-tagged S fragment of mouse hepatitis virus (MHV) (P11224 whole entry, looked up, the tested form may be a part): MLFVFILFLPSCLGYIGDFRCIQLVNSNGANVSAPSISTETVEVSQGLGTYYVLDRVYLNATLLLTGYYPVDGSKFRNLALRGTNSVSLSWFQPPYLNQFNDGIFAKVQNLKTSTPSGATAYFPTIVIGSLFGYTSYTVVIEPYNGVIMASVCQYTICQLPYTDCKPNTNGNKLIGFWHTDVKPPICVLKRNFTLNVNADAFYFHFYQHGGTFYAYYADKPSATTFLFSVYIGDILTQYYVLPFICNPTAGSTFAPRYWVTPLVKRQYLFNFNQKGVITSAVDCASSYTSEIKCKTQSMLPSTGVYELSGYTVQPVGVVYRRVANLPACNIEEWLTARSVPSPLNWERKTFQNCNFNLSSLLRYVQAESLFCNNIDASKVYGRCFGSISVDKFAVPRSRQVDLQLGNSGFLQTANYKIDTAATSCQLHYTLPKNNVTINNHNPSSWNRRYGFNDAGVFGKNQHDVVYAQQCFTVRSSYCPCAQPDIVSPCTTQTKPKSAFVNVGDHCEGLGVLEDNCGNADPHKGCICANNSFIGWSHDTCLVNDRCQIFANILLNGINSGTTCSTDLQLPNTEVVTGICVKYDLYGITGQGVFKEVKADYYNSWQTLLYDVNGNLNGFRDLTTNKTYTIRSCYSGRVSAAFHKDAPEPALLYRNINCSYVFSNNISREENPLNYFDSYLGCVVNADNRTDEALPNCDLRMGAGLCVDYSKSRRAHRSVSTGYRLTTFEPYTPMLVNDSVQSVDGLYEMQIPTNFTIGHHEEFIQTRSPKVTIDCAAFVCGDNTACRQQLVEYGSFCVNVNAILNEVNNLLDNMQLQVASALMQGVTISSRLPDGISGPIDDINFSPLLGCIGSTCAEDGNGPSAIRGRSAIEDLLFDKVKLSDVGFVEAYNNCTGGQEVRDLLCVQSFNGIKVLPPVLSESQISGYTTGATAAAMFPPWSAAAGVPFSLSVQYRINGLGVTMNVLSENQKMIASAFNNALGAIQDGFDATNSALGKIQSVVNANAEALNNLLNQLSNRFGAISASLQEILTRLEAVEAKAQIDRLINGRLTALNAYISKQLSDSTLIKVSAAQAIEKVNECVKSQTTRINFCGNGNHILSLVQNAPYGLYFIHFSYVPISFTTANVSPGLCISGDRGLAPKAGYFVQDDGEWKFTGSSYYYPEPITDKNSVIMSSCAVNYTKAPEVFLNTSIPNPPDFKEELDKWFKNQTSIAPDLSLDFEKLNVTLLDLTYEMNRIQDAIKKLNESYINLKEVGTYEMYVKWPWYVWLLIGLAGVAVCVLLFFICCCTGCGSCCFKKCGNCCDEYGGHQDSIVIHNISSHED
Chain of Myc-tagged S fragment of human coronavirus (HCoV)-OC43 (P36334 whole entry, looked up, the tested form may be a part, one chain of several): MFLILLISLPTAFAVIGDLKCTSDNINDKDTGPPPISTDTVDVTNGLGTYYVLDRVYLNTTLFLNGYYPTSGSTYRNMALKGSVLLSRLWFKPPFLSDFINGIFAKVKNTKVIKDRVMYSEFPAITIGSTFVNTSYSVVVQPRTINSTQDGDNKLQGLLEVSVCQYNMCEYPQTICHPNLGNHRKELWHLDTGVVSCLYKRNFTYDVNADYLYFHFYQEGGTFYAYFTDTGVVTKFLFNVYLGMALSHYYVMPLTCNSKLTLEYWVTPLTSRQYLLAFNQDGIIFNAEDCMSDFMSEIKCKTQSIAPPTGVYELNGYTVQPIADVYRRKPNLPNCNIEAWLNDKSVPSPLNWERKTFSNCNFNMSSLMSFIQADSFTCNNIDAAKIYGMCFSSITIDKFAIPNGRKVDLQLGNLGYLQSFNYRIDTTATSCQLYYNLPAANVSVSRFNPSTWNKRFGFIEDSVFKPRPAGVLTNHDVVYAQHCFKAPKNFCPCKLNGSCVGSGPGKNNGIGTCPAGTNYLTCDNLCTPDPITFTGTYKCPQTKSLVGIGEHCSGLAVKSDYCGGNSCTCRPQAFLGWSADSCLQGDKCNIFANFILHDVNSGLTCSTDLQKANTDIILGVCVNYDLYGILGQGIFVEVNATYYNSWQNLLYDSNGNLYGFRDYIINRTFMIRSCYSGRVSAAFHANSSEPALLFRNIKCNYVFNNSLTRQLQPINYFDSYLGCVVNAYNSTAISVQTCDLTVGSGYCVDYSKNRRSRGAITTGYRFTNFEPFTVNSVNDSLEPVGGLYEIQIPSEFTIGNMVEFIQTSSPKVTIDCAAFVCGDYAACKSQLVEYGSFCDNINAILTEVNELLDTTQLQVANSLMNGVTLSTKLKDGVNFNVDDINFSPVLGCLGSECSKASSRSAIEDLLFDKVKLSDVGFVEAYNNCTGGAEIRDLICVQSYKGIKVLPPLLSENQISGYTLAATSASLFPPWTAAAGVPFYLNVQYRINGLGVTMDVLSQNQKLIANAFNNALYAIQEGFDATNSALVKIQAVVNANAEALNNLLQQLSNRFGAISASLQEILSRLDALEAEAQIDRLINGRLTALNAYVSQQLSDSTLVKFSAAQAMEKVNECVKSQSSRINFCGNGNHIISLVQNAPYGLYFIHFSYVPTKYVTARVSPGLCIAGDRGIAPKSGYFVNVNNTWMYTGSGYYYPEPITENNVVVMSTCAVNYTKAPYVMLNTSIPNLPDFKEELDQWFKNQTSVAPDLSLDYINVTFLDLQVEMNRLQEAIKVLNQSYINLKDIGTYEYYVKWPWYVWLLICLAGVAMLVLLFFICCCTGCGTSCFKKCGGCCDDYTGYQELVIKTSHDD

B1: S2P6 recombinant mAb with human IgG1 constant region (antibody, V domains shown)
VH: EVQLVQSGAEVKKPGASVKVSCKASGYTFTSQYMHWVRQAPGQGLEWIGIINPSGVHTSYAQKFQGRVTLTRDTSTSTLYMELSSLRSEDTAVYYCARGSPKGAFDYWGQGTLVTVSS
VL: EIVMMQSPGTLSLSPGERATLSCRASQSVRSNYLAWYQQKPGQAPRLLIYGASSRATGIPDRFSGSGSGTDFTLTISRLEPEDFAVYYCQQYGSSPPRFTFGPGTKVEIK
notes: also called mAb S2P6
binding result [1]: binds
binding result [2]: binds
binding result [3]: binds
binding result [4]: binds
Kd [5]: < 1 pM
